Experimental data published in PMC13276377, “Structural Mechanism of Receptor-Triggered MyD88 Oligomeric Assembly in Innate Immune Signaling” (Nature Communications, 2026).

Biological target: the molecule itself
Test: high-speed AFM; 10–200 μM TIR_(MyD88) adsorbed on mica for 10 min; 20 mM HEPES pH 7.0, 50 mM NaCl, 10 mM DTT; room temperature

B1: TIR domain of MyD88 (TIR_(MyD88); residues 153–296) (domain or fragment, human, UniProt Q99836-1 153-296, looked up)
chain: PLGHMPERFDAFICYCPSDIQFVQEMIRQLEQTNYRLKLCVSDRDVLPGTCVWSIASELIEKRCRRMVVVVSDDYLQSKECDFQTKFALSLSPGAHQKRLIPIKYKAMKKEFPSILRFITVCDYTNPCTKSWFWTRLAKALSLP
notes: human MyD88, TIR domain, amino acids 153–296; Self-assembles into antiparallel double-stranded filaments, double-layered rings and cylindrical fibers; also called WT TIR_(MyD88); Toll/interleukin-1 receptor domain of MyD88
  stoichiometry N: 58
